“Also recorded” adds a separate entry of the source. Positions of bridges follow the written chain, without caps; N, C: chain ends. Residues, ends and D or L forms follow the SMILES beside them.
Columns and labels:
pepsin = pepsin (Sus scrofa, UniProt P00791); test: Pepsin digestion resistance in simulated gastric fluid, RP-HPLC; assay type: in vitro ADME, porcine; parameters: purchased Sigma Aldrich P7012; details: 500 U/ml pepsin (50 U per reaction) in SGF, 30 minutes at 37.5° C.; HPLC
Method: Peptides were first suspended in 500 ul of ddH2O to a stock concentration of 2 mg/ml. Reactions were prepared by adding 12.5 ug of peptide from the stock solution to a 10 mM solution of DTT in PBS and allowed to incubate at room temperature for 30 minutes. Other reactions were prepared with 12.5 μg peptide with or without 500 U/ml pepsin in simulated gastric fluid (SGF; pH 1.05; […] sodium chloride in 0.7% (v/v) hydrochloric acid) and were incubated for 30 minutes at 37.5° C. Some reactions were quenched with a final concentration of 100 mM Tris base and 10 mM dithiothreitol (DTT). Some reactions were performed in all of the above components, including simulated gastric fluid, pepsin, Tris, and DTT (referred to as SPTD). Reversed phase HPLC (RP-HPLC) was run on samples using an Agilent 1260 HPLC equipped with a C-18 Poroshell 120B column. Sample were analyzed by a gradient method with a mobile phase of Solvent A (water with 0.1% TFA) and Solvent B (acetonitrile with 0.1% TFA). Solvent B was ramped up from 5%-45% of the mobile phase over a period of 10 minutes. Peptides were detected at an absorbance of 214 nm and 280 nm.
(§1) Peptides were first suspended in 500 μl of ddH2O to a stock concentration of 2 mg/ml. Reactions were prepared by adding 12.5 μg of peptide from the stock solution to a 10 mM solution of DTT in PBS and allowed to incubate at room temperature for 30 minutes. Other reactions were prepared with 12.5 μg peptide and 500 U/ml trypsin in 25 mM Tris/75 mM NaCl buffer (pH 7.0) and incubated for 30 minutes at 37.5° C. These reactions were then quenched with 5 μg of soybean trypsin inhibitor (I) and, in some cases, 10 mM dithiothreitol (DTT). Reversed phase HPLC (RP-HPLC) was run on samples using an Agilent 1260 HPLC equipped with a C-18 Poroshell 120B column. Sample were analyzed by a gradient method with a mobile phase of Solvent A (water with 0.1% TFA) and Solvent B (acetonitrile with 0.1% TFA). Solvent B was ramped up from 5%-45% of the mobile phase over a period of 10 minutes. For testing pepsin digestion resistance, reactions were prepared with 12.5 μg peptide with or without 500 U/ml pepsin in simulated gastric fluid (SGF; pH 1.05; […] sodium chloride in 0.7% (v/v) hydrochloric acid) and were incubated for 30 minutes at 37.5° C. For testing temperature resistance, peptides were incubated at 70° C., 75° C., or 100° C. for one hour in 0.5 mM PBS, pelleted, and then the supernatant was analyzed by HPLC.
(§2) This example illustrates peptide stability in biological conditions including in the presence of reducing agents, proteases, oxidative conditions, acidic conditions, and simulated gastric fluids. […] Various peptides were suspended in 500 μl of ddH2O at a stock concentration of 2 mg/ml. This was then diluted in accord with the reaction conditions to prevent adverse buffering effects. Reactions were prepared with 12.5 μg peptide dissolved in solution and, in some samples, additionally suspended in a 10 mM solution of DTT, simulated gastric fluid (pH 1.05; […] sodium chloride in 0.7% (v/v) hydrochloric acid), 500 U pepsin (5000 U/ml pepsin), 50 U trypsin (500 U/ml trypsin) with 1 mg/ml inhibitor in PBS, or a combination of any of these conditions. All protease reactions were incubated for 30 min at room temperature and then quenched. Pepsin reactions were quenched by adding Tris base to a final concentration of 0.075 M. Trypsin reactions were quenched by adding excess soybean trypsin inhibitor. RP-HPLC was then run on samples using an Agilent 1260 HPLC equipped with a C-18 Poroshell 120B column. Sample were analyzed by a gradient method with a mobile phase of Solvent A (water with 0.1% TFA) and Solvent B (acetonitrile with 0.1% TFA). Solvent B was ramped up from 5%-45% of the mobile phase over a period of 10 minutes.
FIG. 20 illustrates high performance liquid chromatograph (HPLC) traces of peptides after pepsin digestion. […]

trypsin = trypsin (Sus scrofa, UniProt P00761); test: Trypsin digestion resistance of soluble peptide, RP-HPLC; assay type: in vitro ADME, porcine; parameters: purchased Sigma Aldrich 6567; details: 500 U/ml trypsin (50 U per reaction), 30 minutes at 37.5° C.; HPLC
trypsin, sequence (P00761 9-231): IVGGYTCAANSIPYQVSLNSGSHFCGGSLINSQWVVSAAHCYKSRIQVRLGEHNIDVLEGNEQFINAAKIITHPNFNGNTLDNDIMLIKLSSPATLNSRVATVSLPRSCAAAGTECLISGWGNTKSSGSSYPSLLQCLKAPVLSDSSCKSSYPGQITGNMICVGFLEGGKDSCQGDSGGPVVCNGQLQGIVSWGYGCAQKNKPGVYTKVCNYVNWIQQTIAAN
Method: as §1, §2
Soluble peptides were exposed to 500 U/mL porcine trypsin and analyzed by HPLC. Protease resistance was also assessed by using SDPR-displaying peptides. The SDPR vector is similar to the a surface display GFP FasL(SDGF) vector, but contains a C-terminal 6×His tag (SEQ ID NO: 180) and all basic or aromatic amino acid residues on the stalk removed. Protease resistance is then tested by incubation of cells displaying peptides with trypsin or chymotrypsin, followed by incubation in 10 mM DTT, and staining with an anti-6×His fluorophore-labeled antibody (“6×His” disclosed as SEQ ID NO: 180). If peptides are uncleaved, they retain the His tag and are stained with by the antibody. A control protease-sensitive knottin peptide (SK) was used as a positive control. Cells displaying peptides were treated with up to 40 μg/ml trypsin or chymotrypsin.
FIG. 21 illustrates high performance liquid chromatograph (HPLC) traces of peptides after trypsin digestion. […] The assay was carried out by reconstituting 1 mg porcine trypsin (Sigma Aldrich 6567) in 1 mL of 1 mM HCl. Trypsin was provided at a concentration of 10,000 u/mL and thus, 5 μl of stock solution was equivalent to using 50 U of trypsin in each reaction. Soybean trypsin inhibitor (SA T9128) was prepared at 1 mg/mL of in H2O. […]

[1] = Resistance to elevated temperature, HPLC; assay type: physicochemical; details: HPLC; for resistance to incubation at 70° C. (in words): 70° C. for 1 hour; for resistance to incubation at 100° C. (in words): 100° C. for 1 hour
Method: as §1
This example illustrates peptide stability at high temperatures. Peptides were first suspended in 500 μl of ddH2O to a stock concentration of 2 mg/ml. Reactions were prepared by adding 6.25 μl of peptide from the stock solution with 95 μl ddH2O and incubated at room temperature, 70° C., or 100° C. for one hour in a Thermocycler. RP-HPLC was then run on samples using an Agilent 1260 HPLC equipped with a C-18 Poroshell 120B column. Sample were analyzed by a gradient method with a mobile phase of Solvent A (water with 0.1% TFA) and Solvent B (acetonitrile with 0.1% TFA). Solvent B was ramped up from 5%-45% of the mobile phase over a period of 10 minutes.

pepsin, sequence (P00791 60-385): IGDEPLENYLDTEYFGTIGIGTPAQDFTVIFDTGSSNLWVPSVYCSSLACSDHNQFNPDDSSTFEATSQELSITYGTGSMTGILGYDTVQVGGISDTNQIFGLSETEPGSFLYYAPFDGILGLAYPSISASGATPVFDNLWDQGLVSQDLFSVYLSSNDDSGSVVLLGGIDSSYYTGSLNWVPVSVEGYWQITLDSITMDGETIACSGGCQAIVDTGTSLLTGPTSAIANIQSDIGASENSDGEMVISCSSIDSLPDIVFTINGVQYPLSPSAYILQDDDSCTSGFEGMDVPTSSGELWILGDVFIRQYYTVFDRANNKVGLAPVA

In the case of `CSCC[C@@H]1NC(=O)[C@@H]2CSSC[C@H](NC(=O)[C@H](CCCCN)NC(=O)[C@@H](NC(=O)[C@H](CC(=O)O)NC(=O)[C@@H](NC(=O)[C@H](Cc3ccccc3)NC(=O)[C@H](CCC(N)=O)NC(=O)[C@H](CO)NC(=O)CN)[C@@H](C)O)C(C)C)C(=O)N[C@@H]([C@@H](C)O)C(=O)NCC(=O)N[C@@H](CO)C(=O)N[C@@H](CCCCN)C(=O)N[C@@H](CCC(N)=O)C(=O)N[C@H]3CSSC[C@H](NC(=O)[C@H](CCCCN)NC(=O)CNC(=O)[C@H](CC(N)=O)NC1=O)C(=O)N[C@@H](CCCNC(=N)N)C(=O)N[C@H](C(=O)N[C@@H](Cc1ccc(O)cc1)C(=O)N[C@@H](CO)C(=O)O)CSSC[C@H](NC(=O)[C@H](C(C)C)NC(=O)[C@@H]1CCCN1C(=O)[C@H](Cc1c[nH]c4ccccc14)NC3=O)C(=O)N[C@@H](CCCCN)C(=O)N[C@@H](CCC(N)=O)C(=O)N[C@@H](CCSC)C(=O)N[C@@H](Cc1ccccc1)C(=O)NCC(=O)N[C@@H](CCCCN)C(=O)N1CCC[C@H]1C(=O)N[C@@H](CC(N)=O)C(=O)NCC(=O)N[C@@H](CCCCN)C(=O)N2` [SEQ ID NO: 12] (H-GSQFTDVKCTGSKQCWPVCKQMFGKPNGKCMNGKCRCYS-OH; disulfide 9-30, 15-35, 19-37), the “resistance to pepsin digestion (in words)” value (pepsin) is reported as “highly resistant” and the “resistance to trypsin digestion (in words)” value (trypsin) is reported as “moderately resistant”.

For `CC[C@H](C)[C@@H]1NC(=O)[C@@H](NC(=O)[C@H](CC(=O)O)NC(=O)[C@H](CCCCN)NC(=O)[C@H](CCC(=O)O)NC(=O)[C@H](CO)NC(=O)[C@H](CO)NC(=O)CN)CSSC[C@@H]2NC(=O)[C@@H]3CSSC[C@@H](C(=O)N[C@@H](CCCNC(=N)N)C(=O)O)NC(=O)[C@H](CCCNC(=N)N)NC(=O)[C@H](CCCCN)NC(=O)[C@H](CCC(=O)O)NC(=O)[C@@H]4CCCN4C(=O)[C@H](CC(N)=O)NC(=O)[C@H]([C@@H](C)O)NC(=O)CNC(=O)[C@H](CCCNC(=N)N)NC(=O)[C@H](CCCNC(=N)N)NC(=O)[C@H](CO)NC(=O)[C@H](CSSC[C@H](NC(=O)[C@H](CCCNC(=N)N)NC(=O)[C@H](CCC(N)=O)NC(=O)[C@H](CC(C)C)NC(=O)[C@H](Cc4c[nH]cn4)NC(=O)[C@H](CCCCN)NC1=O)C(=O)N[C@@H](CCCNC(=N)N)C(=O)N[C@@H](CCC(=O)O)C(=O)N[C@@H](CC(N)=O)C(=O)N[C@@H](CCCCN)C(=O)N[C@@H](CC(=O)O)C(=O)N3)NC(=O)[C@H](CCCCN)NC(=O)[C@H](CCCCN)NC(=O)[C@H](CO)NC2=O` [SEQ ID NO: 29] (H-GSSEKDCIKHLQRCRENKDCCSKKCSRRGTNPEKRCR-OH; disulfide 7-21, 14-25, 20-36), the “resistance to pepsin digestion (in words)” value (pepsin) was “resistant”.

With `CC[C@H](C)[C@@H]1NC(=O)[C@H](CCCCN)NC(=O)[C@@H](NC(=O)[C@H](CCCCN)NC(=O)[C@@H](NC(=O)[C@H](CC(N)=O)NC(=O)[C@@H](NC(=O)[C@@H](NC(=O)[C@@H](NC(=O)CNC(=O)[C@H](CO)NC(=O)CN)C(C)C)[C@@H](C)CC)[C@@H](C)CC)C(C)C)CSSC[C@@H]2NC(=O)[C@H](CCCCN)NC(=O)CNC(=O)[C@H](Cc3ccccc3)NC(=O)[C@H](CCCNC(=N)N)NC(=O)[C@H](CCSC)NC(=O)CNC(=O)[C@H](C)NC(=O)[C@H](CCCCN)NC(=O)[C@H](CCCCN)NC(=O)[C@@H]3CSSC[C@@H](C(=O)N[C@H](C(=O)N4CCC[C@H]4C(=O)N[C@@H](CCCCN)C(=O)O)[C@@H](C)O)NC(=O)[C@H](Cc4c[nH]cn4)NC(=O)[C@H](CSSC[C@H](NC(=O)[C@H](CCC(N)=O)NC(=O)[C@H](CCCNC(=N)N)NC(=O)[C@H](CO)NC1=O)C(=O)N[C@@H](CC(C)C)C(=O)N[C@@H](CCC(=O)O)C(=O)N1CCC[C@H]1C(=O)N3)NC(=O)[C@H](CCCCN)NC(=O)CNC(=O)[C@H](CC(N)=O)NC(=O)[C@H](CCSC)NC2=O` [SEQ ID NO: 57] the “resistance to trypsin digestion (in words)” value (trypsin) was “highly resistant; also recorded: fully resistant”.

With “GSACLAEYQKCEGSTVPCCPGLSCSAGRFRKTKLCTK [SEQ ID NO: 25]” the “resistance to incubation at 70° C. (in words)” value [1] was “resistant” and the “resistance to incubation at 100° C. (in words)” value [1] was “various degrees of degradation”.

In the case of “GSACQFWSCNSSCISRGYRQGYCWGIQYKYCQCQ [SEQ ID NO: 17]”, the “resistance to incubation at 100° C. (in words)” value [1] is reported as “resistant”.

In the case of “GSEVIRCSGSKQCYGPCKQQTGCTNSKCMNKVCKCYGCG [SEQ ID NO: 23]”, the “resistance to incubation at 70° C. (in words)” value [1] is reported as “resistant” and the “resistance to incubation at 100° C. (in words)” value [1] is reported as “various degrees of degradation”.
